Assay [1] addresses human IL-12Rβ2-huFc-his (R&D system), biotinylated (human) (UniProt Q99665). The assay is described as follows: ELISA, periplasmic extract.
The target of assay [2] is human IL-12RB2 with C-terminal HA tag, transiently expressed on HEK-293T cells (human) (UniProt Q99665). The assay is described as follows: FACS, periplasmic extract, HEK-293T. A general note: In flow cytometry, cells or beads pass a laser one at a time.
The target in assay [3] is cyno IL-12RB2 with C-terminal HA tag, transiently expressed on HEK-293T cells (cyno). The assay is described as follows: FACS, periplasmic extract, HEK-293T.
cyno IL-12RB2 with C-terminal HA tag, transiently expressed on HEK-293T cells (cyno), sequence (chain, as listed by the source): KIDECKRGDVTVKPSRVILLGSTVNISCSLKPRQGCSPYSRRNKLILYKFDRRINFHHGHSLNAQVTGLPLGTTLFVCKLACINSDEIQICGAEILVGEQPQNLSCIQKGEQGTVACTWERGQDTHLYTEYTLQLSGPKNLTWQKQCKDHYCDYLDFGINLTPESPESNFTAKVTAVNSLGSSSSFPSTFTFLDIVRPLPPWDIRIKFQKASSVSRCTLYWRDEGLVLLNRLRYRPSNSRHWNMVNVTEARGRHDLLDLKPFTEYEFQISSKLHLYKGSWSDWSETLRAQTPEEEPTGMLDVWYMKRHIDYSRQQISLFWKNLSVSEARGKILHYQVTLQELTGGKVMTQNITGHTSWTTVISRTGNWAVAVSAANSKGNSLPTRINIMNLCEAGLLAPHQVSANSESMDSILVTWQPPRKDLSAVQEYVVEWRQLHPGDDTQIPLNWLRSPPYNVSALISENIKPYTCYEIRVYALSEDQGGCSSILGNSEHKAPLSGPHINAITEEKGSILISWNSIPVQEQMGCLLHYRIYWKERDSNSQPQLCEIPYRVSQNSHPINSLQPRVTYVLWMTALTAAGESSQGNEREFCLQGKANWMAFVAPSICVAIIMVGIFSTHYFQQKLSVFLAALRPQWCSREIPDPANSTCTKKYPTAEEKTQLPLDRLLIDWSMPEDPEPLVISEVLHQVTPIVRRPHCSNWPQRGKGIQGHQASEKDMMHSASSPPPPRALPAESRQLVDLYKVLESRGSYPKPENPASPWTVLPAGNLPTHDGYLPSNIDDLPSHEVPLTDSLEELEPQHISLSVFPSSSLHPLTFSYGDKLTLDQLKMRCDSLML

human IL-12Rβ2-huFc-his (R&D system), biotinylated (human), sequence (Q99665 24-622 limits assumed): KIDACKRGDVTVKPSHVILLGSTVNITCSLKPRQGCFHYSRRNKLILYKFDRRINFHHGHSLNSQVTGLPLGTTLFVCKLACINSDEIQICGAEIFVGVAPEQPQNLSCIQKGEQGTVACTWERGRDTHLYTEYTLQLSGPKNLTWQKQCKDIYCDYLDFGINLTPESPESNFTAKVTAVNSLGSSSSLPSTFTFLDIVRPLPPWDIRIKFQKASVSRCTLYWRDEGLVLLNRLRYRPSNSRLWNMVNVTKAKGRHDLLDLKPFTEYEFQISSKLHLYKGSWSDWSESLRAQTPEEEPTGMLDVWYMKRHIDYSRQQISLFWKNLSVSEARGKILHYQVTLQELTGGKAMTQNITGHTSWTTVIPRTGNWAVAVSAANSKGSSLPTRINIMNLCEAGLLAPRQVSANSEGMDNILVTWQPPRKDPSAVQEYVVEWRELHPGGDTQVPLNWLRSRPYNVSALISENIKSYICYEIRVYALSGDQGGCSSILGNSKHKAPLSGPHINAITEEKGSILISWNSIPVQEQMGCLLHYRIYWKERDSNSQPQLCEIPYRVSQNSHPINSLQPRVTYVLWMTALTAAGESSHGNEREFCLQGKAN
human IL-12RB2 with C-terminal HA tag, transiently expressed on HEK-293T cells (human), sequence (Q99665 24-862): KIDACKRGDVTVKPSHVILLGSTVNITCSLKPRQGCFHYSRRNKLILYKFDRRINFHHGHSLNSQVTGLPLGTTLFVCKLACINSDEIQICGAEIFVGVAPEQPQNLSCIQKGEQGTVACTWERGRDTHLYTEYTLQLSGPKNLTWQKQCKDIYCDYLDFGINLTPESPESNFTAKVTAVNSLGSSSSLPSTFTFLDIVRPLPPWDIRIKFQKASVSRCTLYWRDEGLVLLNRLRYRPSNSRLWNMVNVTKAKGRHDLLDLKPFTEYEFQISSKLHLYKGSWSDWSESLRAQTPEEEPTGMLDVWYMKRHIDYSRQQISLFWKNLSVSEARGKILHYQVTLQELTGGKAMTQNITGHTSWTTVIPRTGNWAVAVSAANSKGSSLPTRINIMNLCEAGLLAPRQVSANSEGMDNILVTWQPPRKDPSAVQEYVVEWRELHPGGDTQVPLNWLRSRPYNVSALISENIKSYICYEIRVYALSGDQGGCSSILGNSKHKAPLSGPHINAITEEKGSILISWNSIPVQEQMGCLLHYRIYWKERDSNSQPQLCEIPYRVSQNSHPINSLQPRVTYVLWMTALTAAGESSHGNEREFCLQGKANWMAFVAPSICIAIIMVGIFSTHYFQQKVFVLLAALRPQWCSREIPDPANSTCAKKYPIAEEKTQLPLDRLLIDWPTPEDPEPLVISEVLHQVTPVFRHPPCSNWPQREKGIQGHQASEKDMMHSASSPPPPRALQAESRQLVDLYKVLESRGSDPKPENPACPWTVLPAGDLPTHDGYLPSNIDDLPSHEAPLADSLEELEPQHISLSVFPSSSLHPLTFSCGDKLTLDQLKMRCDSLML

B1: VHH216B2 (VHH)
VHH: QVQLVESGGGLVQPGGSLRLSCATSEHTFGTYRMGWFRQAPGKEREFVAGISWTGQTTYYAASVKGRFAISKDNAKNTVYLQMNTLKSDDTAVYYCAVETNNLGRWDRPSEYDYWGQGTQVTVSS
Take B1: the OD450 nm in assay [1] is 0.586. The FOB in assay [2] came out at 0.99 fold.

B2: VHH229B2 (VHH)
VHH: QVQLVESGGGLVQAGGSLRLSCAASGRTFSSYAMGWFRQAPGKEREFVSAISWNGGSRYYVESVEGRFTISRDNAKNTVYLQMNSLKPEDTAVYYCAASRIYTNYVARSYEYDDWGQGTQVTVSS
With B2, in assay [1], the OD450 nm is 0.138.

B3: VHH230B2 (VHH)
VHH: QVQLVESGGGLVQAGGSLRLSCAASGRTFSSYAMGWFRQAPGKEREFVSAISWSGLSTYYVESVQGRFTISRDNAKNTVYLQMNSLKPEDTAVYYCAASRIYTNYVARSYEYDDWGQGTQVTVSS
For B3, the FOB in assay [3] was 1.66 fold.

B4: VHH241B2 (VHH)
VHH: QVQLVESGGGLVQLGDSLRLSCAASGRGFSSWTMAWFRQALGKRREFVAAITATGARTCSAESEGRFTISRDNAKNMVFLQMNSLKAEDTAVYYCAATGIASWDPGMADKYTYWGQGTQVTVSS
In turn, B4 registered an OD450 nm in assay [1] of 0.139. In assay [2], this molecule came in with an FOB of 1.63 fold.

B5: VHH277B2 (VHH)
VHH: QVQLVESGGGLVQLGDSLRLSCAASGRGFSSWTMAWFRQALGKRREFVAAITATGARTCSAESEGRFTISRDNAKNMVFLQMNSLKAEDTAVYYCAATEIAGWDPGMGDKYPYWGQGTQVTVSS
In assay [1], B5 displayed an OD450 nm of 0.137.

B6: VHH93B2 (VHH)
VHH: QVQLVESGGGLVQPGGSLRLSCAASGFTFEPYDMSWFRQAPGKGPEWVSAIDKGGGAGATYYADSVKGRFTISRDNAKKTLYLQMKSLKPEDTAVYYCAITAGPYSDSTPRVAYRGEGTQVTVSS
The molecule B6 had an FOB in assay [2] of 1.98 fold.

B7: VHH211B2 (VHH)
VHH: QVQLVESGGGLVQAGNSLRLSCAASGRTFSSYVVGWFRQAPGKEREFVGRISWSGARTYYADSVKGRFTISRDNAKNTVYLQMNSLKPEDTAVYYCAADLKWEVLLSEHFEYWGQGTQVTVSS
On to B7, for which, in assay [1], the OD450 nm was found to be 0.227.

B8: VHH219B2 (VHH)
VHH: QVQLEESGGGLVQAGGSLRLSCAASGRTFSSYVVGWFRQAPGKEREFVGRISWSGARTYYADSVEGRFTISRDNAKNTVYLQMNSLKPEDTAVYYCAADLKWEVLLSEHYEYWGQGTQVTVSS
B8 displayed an FOB in assay [2] of 1.54 fold.

B9: VHH356B2 (VHH)
VHH: QLQLVESGGGLVQPGGSLRLSCAASGSIFSINAMGWYRQAPGKQRELVAAITSGGSTAYADSVKGRFTISRDNAKNTVYLQMNSLKPEDTAVYYCNADRDPITSWYVRGDYWGQGTQVTVSS
Consider B9, for which the FOB in assay [3] is 2 fold.

The record behind these values is US20250019450A1.
